According to patent EP4799645A2 (GAN & LEE PHARMACEUTICALS CO., LTD., dated 2026):
Numbered stars: 1 amine (or outer) side, 2 acyl side, 3 side chain; on linkers, the order of the positions; unused ones are H or OH. Side chains are listed from the residue outwards. Ends that are not written are not given here. * marks the point of attachment. C22 diacid = O=C(O)CCCCCCCCCCCCCCCCCCCCC(=O)*; γGlu = O=C(O)[C@H](CCC(=O)[*:2])N[*:1]; AEEA = NCCOCCOCC(=O)O

Biological target: albumin (HSA) (human, UniProt P02768 25-609)
Experiment: shift of receptor-binding IC50 between 0.005% and 2% HSA (indirect)

Sequence of albumin (HSA) (P02768 25-609 limits assumed): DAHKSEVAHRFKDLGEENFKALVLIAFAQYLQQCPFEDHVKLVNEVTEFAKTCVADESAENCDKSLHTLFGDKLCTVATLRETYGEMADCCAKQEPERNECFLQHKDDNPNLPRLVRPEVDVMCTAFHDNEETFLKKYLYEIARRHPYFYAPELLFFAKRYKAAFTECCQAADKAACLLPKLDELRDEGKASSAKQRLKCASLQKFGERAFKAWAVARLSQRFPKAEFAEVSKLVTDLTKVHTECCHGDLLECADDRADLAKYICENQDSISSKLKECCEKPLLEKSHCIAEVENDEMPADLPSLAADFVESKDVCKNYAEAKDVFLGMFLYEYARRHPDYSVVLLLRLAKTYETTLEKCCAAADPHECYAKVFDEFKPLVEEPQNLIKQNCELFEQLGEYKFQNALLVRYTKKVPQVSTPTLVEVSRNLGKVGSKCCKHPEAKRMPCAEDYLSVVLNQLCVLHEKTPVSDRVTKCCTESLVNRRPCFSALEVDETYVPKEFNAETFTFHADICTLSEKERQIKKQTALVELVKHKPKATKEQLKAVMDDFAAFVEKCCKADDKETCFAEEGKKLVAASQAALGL

## HGEGTFTSDVSSYLEGQAAK([AEEA-AEEA-γGlu-C22 diacid])EFIAWLVRGRG (also called Compound 10)
  binding result: binds
